Measured values: paper PMC2928128

Key:
Assay in all cases: SPR
[1] = target: GST-CDH23Δexon68ΔITEL (residues 847-1075)
[2] = target: GST-CDH23Δexon68 (cytoplasmic region of cadherin-23 lacking the exon68-encoded sequence, residues 847-1079)
[3] = target: GST-CDH23 + exon68 (cytoplasmic region of cadherin-23 including the exon68-encoded sequence, residues 847-1114)
[4] = target: GST-CDH23 + exon68ΔITEL (residues 847-1110)

Measured: Kd

harmonin-a PDZ3 domain (residues 434-545) (domain or fragment), sequence (Q9ES64 434-545): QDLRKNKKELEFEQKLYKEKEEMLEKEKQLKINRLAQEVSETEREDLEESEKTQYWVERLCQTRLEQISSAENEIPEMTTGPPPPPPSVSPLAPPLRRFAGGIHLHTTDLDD

harmonin-a PDZ3 domain (residues 434-545) (domain or fragment)
> 5 µM: all assays above
